The target of this data set is VEGF165 (VEGF A165) (UniProt P15692-4 27-191). As to the kind of experiment: electrochemical impedance spectroscopy (aptasensor); 10 pg/ml-1 ug/ml VEGF, 60 min; LOD 8.2 pg/ml (not a Kd); VEGF incubated 60 min (37 C in the time optimisation) on BSA-blocked aptamer/CME NP electrode, water wash; EIS in 0.1 M PBS pH 7.4 with 5 mM [Fe(CN)6]3-/4-. The settings on record: protein: commercial; chain copies: 2; hairpin.
Chain of VEGF165 (VEGF A165) (P15692 other isoform, or with tags, fused parts or gaps): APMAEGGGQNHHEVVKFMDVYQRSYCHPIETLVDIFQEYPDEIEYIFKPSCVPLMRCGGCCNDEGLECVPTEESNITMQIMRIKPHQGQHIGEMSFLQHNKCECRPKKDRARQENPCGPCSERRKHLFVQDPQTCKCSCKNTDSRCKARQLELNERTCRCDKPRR

B1: VEGF aptamer with 5' A10 spacer (structured_DNA)
DNA: AAAAAAAAAACCGTCTTCCAGACAAGAGTGCAGGGAAAAAGAAGACGG
modifications: 5' carboxylic acid
As for B1, the binding result is “binds”.

The values are drawn from article PMC9124786, “A One-Step Electrochemical Aptasensor Based on Signal Amplification of Metallo Nanoenzyme Particles for Vascular Endothelial Growth Factor”.
